Reference: patent publication US20070196354A1, “Method of treating diabetes by inhibiting degradation of at least one of crebl1, atf6, and hnf-4 alpha by htra” (priority 2003, published 2007)

Target: T1, ATF6 (Homo sapiens, UniProt P18850)
T1 construct: expressed in transfected cells; host or cells: HEK293T
T1 sequence (P18850 1-670): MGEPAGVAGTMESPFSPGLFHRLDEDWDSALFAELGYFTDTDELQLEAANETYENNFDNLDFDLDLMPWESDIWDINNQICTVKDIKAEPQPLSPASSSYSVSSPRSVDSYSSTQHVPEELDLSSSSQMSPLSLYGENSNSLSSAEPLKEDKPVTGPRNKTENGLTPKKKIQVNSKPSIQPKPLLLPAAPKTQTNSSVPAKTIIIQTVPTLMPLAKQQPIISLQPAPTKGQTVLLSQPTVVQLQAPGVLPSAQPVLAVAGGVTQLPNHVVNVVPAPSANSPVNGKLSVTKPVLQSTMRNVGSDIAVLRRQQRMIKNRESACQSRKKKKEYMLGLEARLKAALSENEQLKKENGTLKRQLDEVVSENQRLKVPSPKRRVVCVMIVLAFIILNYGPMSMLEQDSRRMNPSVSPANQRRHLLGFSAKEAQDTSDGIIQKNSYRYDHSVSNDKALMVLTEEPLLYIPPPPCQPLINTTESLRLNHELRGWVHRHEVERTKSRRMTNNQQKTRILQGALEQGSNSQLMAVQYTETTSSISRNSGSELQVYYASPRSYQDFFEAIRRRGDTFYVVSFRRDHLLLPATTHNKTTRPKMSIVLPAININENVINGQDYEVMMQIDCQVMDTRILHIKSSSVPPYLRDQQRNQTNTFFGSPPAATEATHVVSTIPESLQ
Assay: In vitro protease assay, ATF6 captured on resin
Type: biochemical
Settings: 50 μg/ml, 37° C., four hours (4 h) or overnight (O/N), anti-c-Myc detection
Method: CREBL1 and ATF6 which were captured on the resin were used in the experiments in order to eliminate the influence of proteinaceous impurities contained in the soluble fractions prepared from the cells obtained by transfecting an expression plasmid of CREBL1 or ATF6. Three hundreds μl of each soluble fraction of CREBL1 and ATF6 was dispensed to six tubes (Nos. 1 to 6), followed by adding 20 μl of protein G sepharose 4 FF (Amersham) of 50% slurry that had been subjected to blocking with BSA, to each of tubes, subjected to overturned mixing at 4° C. for 1 hour, and then subjected to centrifugation (10,000 rpm, 10 sec, 4° C.) to collect the supernatant, and thus the pre-treatment (pre-clean) was performed. The resultant supernatant was mixed with 1.7 μl (2 μg) of anti-Myc antibody (Invitrogen), subjected to overturned mixing at 4° C. for 3 hours, followed by adding 20 μl of protein G sepharose 4 FF that had been subjected to blocking with BSA, and then subjected to overturned mixing at 4° C. overnight. Thus, CREBL1 and ATF6 were respectively captured on protein G sepharose 4 FF. […]

B1: mature HtrA2: SEQ ID NO: 4; mature protein generated from HtrA2 precursor by cleavage of N-terminal 133 residues, has protease activity (protein, listed as Homo sapiens)
chain: MAVPSPPPASPRSQYNFIADVVEKTAPAVVYIEILDRHPFLGREVPISNGSGFVVAADGLIVTNAHVVADRRRVRVRLLSGDTYEAVVTAVDPVADIATLRIQTKEPLPTLPLGRSADVRQGEFVVAMGSPFALQNTITSGIVSSAQRPARDLGLPQTNVEYIQTDAAIDFGNSGGPLVNLDGEVIGVNTMKVTAGISFAIPSDRLREFLHRGEKKNSSSGISGSQRRYIGVMMLTLSPSILAELQLREPSFPDVQHGVLIHKVILGSPAHRAGLRPGDVILAIGEQMVQNAEDVYEAVRTQSQLAVQIRRGRETLTLYVTPEVTE
modifications: mature HtrA2
degradation of ATF6 (band by western blotting): the band of ATF6 was reduced significantly
